# Molecular target: the molecule itself
# Assay: SEC; gel filtration of purified wild type MpPR on HiLoad 16/60 Superdex 200 in 10 mM Tris-HCl pH 8.0, 50 mM NaCl, 5 mM MgCl2, 1 mM DTT; molecular mass calibrated with high and low molecular weight calibration kits
protein,measurement,value
"(+)-pulegone reductase from Mentha piperita (enzyme, (+)-pulegone reductase, Mentha piperita, UniProt Q6WAU0; gene cloned into pET28a with NheI and HindIII; also called MpPR; wild type MpPR; source: E. coli BL21(DE3), purified (Ni-NTA, gel filtration on Superdex 200)) MVMNKQIVLNNYINGSLKQSDLALRTSTICMEIPDGCNGAILVKNLYLSVNPYLILRMGKLDIPQFDSILPGSTIVSYGVSKVLDSTHPSYEKGELIWGSQAGWEEYTLIQNPYNLFKIQDKDVPLSYYVGILGMPGMTAYAGFFEICSPKKGETVFVTAAAGSVGQLVGQFAKMFGCYVVGSAGSKEKVDLLKNKFGFDDAFNYKEESDYDTALKRHFPEGIDIYFDNVGGKMLEAVINNMRVHGRIAVCGMVSQYSLKQPEGVHNLLKLIPKQIRMQGFVVVDYYHLYPKFLEMVLPRIKEGKVTYVEDISEGLESAPSALLGVYVGRNVGNQVVAVSRE",stoichiometry N,2

# Reference: PMC8670242, “Functional Characterization and Structural Insights Into Stereoselectivity of Pulegone Reductase in Menthol Biosynthesis” (Frontiers in Plant Science, 2021)
